Measurements reported in patent publication US7972827B2, “Photoswitchable method for the ordered attachment of proteins to surfaces” (Lawrence Livermore National Security, LLC, priority 2003, dated 2011).

Target: T1, MBP-N-intein fusion protein (Synechocystis sp., UniProt P74750)
T1 construct: made in house; host or cells: E. coli BL21(DE3)pLysS+
Assay: in solution trans-splicing activity of photocaged C-intein polypeptides with MBP-N-intein fusion protein
Assay type: biochemical, Synechocystis sp. PCC6803
Settings: for trans-splicing activity relative to the non-photocaged C-intein polypeptide: % of the trans-splicing activity of the non-photocaged C-intein polypeptide, SDS-PAGE analysis
Description: In-vitro protein trans-splicing was characterized as follows. Each purified C-intein polypeptide was combined with MBP-N-intein fusion protein in splicing buffer (0.5 mM EDTA, 1 mM TCEP, 50 mM sodium phosphate, 150-500 mM NaCl at pH 7). The concentration of the two proteins was typically in the range 0.1-200 μM. The mixture was allowed to react at 4° C. for 12-16 h. The reaction was then quenched by dilution into SDS-PAGE loading buffer containing 20% v/v 2-mercaptoethanol before the SDS-PAGE analysis. The spliced product was purified using HPLC and characterized by ES-MS as the trans-spliced product. The expected mass (average isotopic composition)=43988.0 Da; measured mass=43986±10 Da.
The in solution trans-splicing activity of each photocaged C-intein polypeptide was assayed using the MBP-N-intein fusion protein expressed as described above.

Row | Substance | trans-splicing activity relative to the non-photocaged C-intein polypeptide | ability to promote trans-splicing (in words) (with MBP-N-intein fusion protein, data not shown)
1 | C-intein polypeptide with caged Gly6: DnaE C-intein polypeptide SEQ ID NO:6 with PEGylated thiol linker, photocaged (nitroveratryl) at Gly6 | about 30% | 
2 | C-intein polypeptide with caged Gly11: DnaE C-intein polypeptide SEQ ID NO:6 with PEGylated thiol linker, photocaged (nitroveratryl) at Gly11 | around 60% | 
3 | C-intein polypeptide with two caged residues, Gly19 and Gly31: DnaE C-intein polypeptide SEQ ID NO:6 with PEGylated thiol linker, photocaged (nitroveratryl) at both Gly19 and Gly31 |  | completely prevent trans-splicing activity
4 | C-intein polypeptide with caged Gly19: DnaE C-intein polypeptide SEQ ID NO:6 with PEGylated thiol linker, photocaged (nitroveratryl) at Gly19 | about 30% | 
